Target: T1, GST-OsSGT1 (rice (Oryza sativa L.), UniProt Q0JL44 1-367)
T1 sequence (looked up): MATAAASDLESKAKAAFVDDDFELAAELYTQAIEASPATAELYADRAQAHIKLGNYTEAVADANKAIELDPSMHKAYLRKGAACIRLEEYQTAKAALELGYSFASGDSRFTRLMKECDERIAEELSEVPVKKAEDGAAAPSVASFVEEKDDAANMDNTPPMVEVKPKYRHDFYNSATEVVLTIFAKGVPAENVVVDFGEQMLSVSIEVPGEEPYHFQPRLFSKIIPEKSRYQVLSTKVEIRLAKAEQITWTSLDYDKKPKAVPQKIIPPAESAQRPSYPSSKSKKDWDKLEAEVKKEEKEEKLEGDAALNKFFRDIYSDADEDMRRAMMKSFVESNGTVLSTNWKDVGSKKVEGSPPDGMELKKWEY
Assay: pull-down; GST-, GST-fusion-coupled beads used to capture the His tag or His-OsSAPK9; detection with HRP-conjugated anti-His antibody
Details: both partners purified

B1: His-OsSAPK9 (natural protein, rice (Oryza sativa L.), UniProt Q75V57 1-361, looked up)
chain: MERAAAGPLGMEMPIMHDGDRYELVKEIGSGNFGVARLMRNRASGDLVAVKYIDRGEKIDENVQREIINHRSLRHPNIIRFKEVILTPTHLAIVMEYASGGELFERICSAGRFSEDEARFFFQQLISGVSYCHSMQVCHRDLKLENTLLDGSTAPRLKICDFGYSKSSVLHSQPKSTVGTPAYIAPEVLLKKEYDGKIADVWSCGVTLYVMLVGAYPFEDPEDPKNFRKTIQKILGVQYSIPDYVHISPECRDLITRIFVGNPASRITMPEIKNHPWFMKNIPADLMDDGMVSNQYEEPDQPMQNMNEIMQILAEATIPAAGTSGINQFLTDSLDLDDDMEDMDSDLDLDIESSGEIVYAM
notes: also called histidine-tagged OsSAPK9 protein
binding result: binds

Source: publication PMC6848426 (Rice, 2019)
